Earlier results, collected in article PMC7379096 (ACS Omega, 2020).

Settings: stated in the method section, no reference given

With Immunoglobulin G [IgG] as the substance, how does the pI read?
The pI was 5.5–8.3.
